Results reported in patent US20220389118A1 (Chugai, published 2022).
Changes are numbered by the printed parent chain. Names may count otherwise. Blank lines part the entries; values can stand above or below the binder they belong to.

How the values were obtained:
[1] = target: T1, human FcγRIIb extracellular domain (human, UniProt P31994 43-217); assay: ratio of the SPR KD for FcγRIIaR to the KD for FcγRIIb (selectivity)
T1 construct: also called FcγIIB; not shown: His tag at the C terminus
T1 sequence: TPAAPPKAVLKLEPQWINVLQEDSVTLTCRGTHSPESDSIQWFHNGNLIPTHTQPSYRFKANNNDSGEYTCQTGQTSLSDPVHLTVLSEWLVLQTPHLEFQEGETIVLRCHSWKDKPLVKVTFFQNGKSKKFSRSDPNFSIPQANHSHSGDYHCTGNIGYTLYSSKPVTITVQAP

[2] = target: T1, human FcγRIIb extracellular domain; assay: ratio of the SPR KD for FcγRIIaH to the KD for FcγRIIb (selectivity)
[3] = target: T2, human FcγRIa extracellular domain (human, UniProt P12314 16-292); assay: SPR (Biacore), antibody captured on chip, FcγR extracellular domain as analyte, 25 C
T2 construct: also called CD64; not shown: His tag at the C terminus
T2 sequence (P12314 16-292): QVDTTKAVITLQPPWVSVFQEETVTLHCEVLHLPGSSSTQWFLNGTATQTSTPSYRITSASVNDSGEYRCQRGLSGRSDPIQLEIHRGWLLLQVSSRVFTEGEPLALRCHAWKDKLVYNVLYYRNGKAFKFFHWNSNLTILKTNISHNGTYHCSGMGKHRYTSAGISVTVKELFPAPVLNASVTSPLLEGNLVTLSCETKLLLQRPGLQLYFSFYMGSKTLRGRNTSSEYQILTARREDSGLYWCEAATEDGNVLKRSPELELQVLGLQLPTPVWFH

[4] = target: T3, human FcγRIIa type R extracellular domain (human, UniProt P12318 34-217); assay: as above
T3 construct: also called FcγRIIaR; FcγRIIa(R); not shown: His tag at the C terminus
T3 chain: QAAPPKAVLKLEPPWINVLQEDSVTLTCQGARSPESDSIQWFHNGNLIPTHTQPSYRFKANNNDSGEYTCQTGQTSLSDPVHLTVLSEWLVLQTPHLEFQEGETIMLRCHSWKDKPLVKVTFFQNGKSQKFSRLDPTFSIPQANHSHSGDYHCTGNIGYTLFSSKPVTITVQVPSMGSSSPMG

[5] = target: T1, human FcγRIIb extracellular domain; assay: as above
[6] = target: T3, human FcγRIIa type R extracellular …; assay: fold against IL6R-B3/IL6R-L, from SPR KD values
[7] = target: T1, human FcγRIIb extracellular domain; assay: fold against IL6R-B3/IL6R-L, from SPR KD values
[8] = target: T4, human FcγRIIa type H (H131) extracellular domain with C-terminal His tag (human, UniProt P12318 34-217); assay: SPR (Biacore), antibody captured, FcγR analyte
T4 construct: extracellular domain; also called FcγRIIaH; not shown: His tag at the C terminus
T4 sequence (looked up): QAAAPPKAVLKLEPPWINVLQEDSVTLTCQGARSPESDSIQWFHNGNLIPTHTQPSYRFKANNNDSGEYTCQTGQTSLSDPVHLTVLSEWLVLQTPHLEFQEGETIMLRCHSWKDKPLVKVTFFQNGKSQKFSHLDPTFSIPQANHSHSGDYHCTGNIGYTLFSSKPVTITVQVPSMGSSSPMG

[9] = target: T5, human FcγRIIa type H extracellular domain with C-terminal His tag (human, UniProt P12318 34-217); assay: SPR (Biacore)
T5 construct: extracellular domain; also called FcγRIIaH; FcgRIIaH
T5 sequence (looked up): T4 sequence (looked up)

[10] = target: T6, human FcγRIIa type R extracellular domain with C-terminal His tag (human, UniProt P12318 34-217); assay: SPR (Biacore)
T6 construct: extracellular domain; also called FcγRIIaR; FcγRIIa(R)
T6 sequence (looked up): T4 sequence (looked up) with H134R

[11] = target: T7, human FcγRIIb extracellular domain with C-terminal His tag (human, UniProt P31994 43-217); assay: SPR (Biacore)
T7 construct: extracellular domain
T7 sequence (looked up): T1 sequence

[12] = target: T6, human FcγRIIa type R extracellular …; assay: SPR (Biacore); worded summary of Table 28
[13] = target: T7, human FcγRIIb extracellular domain with …; assay: SPR (Biacore); worded summary of Table 28
[14] = target: T8, human FcγRIIa type R (R131) extracellular domain with C-terminal His tag (human, UniProt P12318 34-217); assay: SPR (Biacore); KD of IL6R-B3/IL6R-L divided by KD of this antibody
T8 construct: extracellular domain; also called FcγRIIaR; not shown: His tag at the C terminus
T8 sequence (looked up): T4 sequence (looked up) with H134R

[15] = target: T9, human FcγRIIb extracellular domain with C-terminal His tag (human, UniProt P31994 43-217); assay: as above
T9 construct: extracellular domain; not shown: His tag at the C terminus
T9 sequence (looked up): T1 sequence

[16] = target: T8, human FcγRIIa type R (R131) …; assay: SPR (Biacore), antibody captured, FcγR analyte
[17] = target: T10, human FcγRIa extracellular domain with C-terminal His tag (human, UniProt P12314 16-292); assay: SPR (Biacore), antibody captured, FcγR analyte
T10 construct: not shown: His tag at the C terminus
T10 sequence (P12314 16-292): as the sequence (P12314 16-292) above

[18] = target: T9, human FcγRIIb extracellular domain with …; assay: SPR (Biacore), antibody captured, FcγR analyte
[19] = target: T9, human FcγRIIb extracellular domain with …; assay: SPR (Biacore); KD for FcγRIIaR divided by KD for FcγRIIb
[20] = target: T11, human FcγRIa extracellular domain with C-terminal His tag (human, UniProt P12314 16-292); assay: SPR (Biacore), antibody captured, FcγR analyte; remark: listed apart in the source
T11 construct: not shown: His tag at the C terminus
T11 sequence (P12314 16-292): as the sequence (P12314 16-292) above

[21] = target: T12, human FcγRIa extracellular domain with C-terminal His tag (human, UniProt P12314 16-292); assay: SPR (Biacore)
T12 construct: extracellular domain
T12 sequence (P12314 16-292): as the sequence (P12314 16-292) above

B2: IL6R-BP423/IL6R-L (antibody, human IgG1, kappa)
heavy: QVQLQESGPGLVKPSETLSLTCAVSGHSISHDHAWSWVRQPPGEGLEWIGFISYSGITNYNPSLQGRVTISRDNSKNTLYLQMNSLRAEDTAVYYCARSLARTTAMDYWGEGTLVTVSSASTKGPSVFPLAPSSKSTSGGTAALGCLVKDYFPEPVTVSWNSGALTSGVHTFPAVLQSSGLYSLSSVVTVPSSSLGTQTYICNVNHKPSNTKVDKKVEPKSCDKTHTCPPCPAPDLLGDDSVFLFPPKPKDTLMISRTPEVTCVVVDVAEEDGEVKFNWYVDGVEVHNAKTKPREEQYNSTYRVVSVLTVLHQDWLNGKEYKCKVSNKALPRPIEKTISKAKGQPREPQVYTLPPSRDELTKNQVSLTCLVKGFYPSDIAVEWESNGQPENNYKTTPPVLDSDGSFFLYSKLTVDKSRWQQGNVFSCSVMHEALHNHYTQESLSLSP
light: not shown
notes: alterations counted against IL6R-B3; copies: 2 + 2
- Kd [8]: 2000 nM

B3: IL6R-BP129/IL6R-L (antibody, human IgG1, kappa)
heavy: B2 heavy with D239G, A269S, E270H, G273P, Y298D, R332K
light: not shown
notes: EU numbering; alterations on IL6R-B3; copies: 2 + 2
- Kd [9]: 40000 nM

B6: IL6R-BP246/IL6R-L (antibody, human IgG1, kappa)
heavy: B2 heavy with A269Q, E270D, Y298D, K328A
light: not shown
notes: copies: 2 + 2
- Kd [20]: 8 nM

B7: IL6R-BP493/IL6R-L (antibody, human IgG1, kappa)
heavy: B2 heavy with D235E, D239G, V266I, Y298D, R332A
light: not shown
notes: copies: 2 + 2
- Kd [21]: 0.82 nM
- Kd [11]: 21 nM
- FcγRIIaR binding as compared to IL6R-B3/IL6R-L [12]: ≤ 1.5 times
- FcγRIIb-binding activity as compared to IL6R-B3/IL6R-L [13]: ≥ 100 times

B10: IL6R-BP249/IL6R-L (antibody, human IgG1, kappa)
heavy: B2 heavy with L236Y, A269S, E270D, Y298D
light: not shown
notes: copies: 2 + 2
- Kd [20]: 7 nM

Next, values leading:

- KD(IIaR)/KD(IIb) [1]: 22.8
- KD(IIaH)/KD(IIb) [2]: 168
- Kd [3]: 5.6 nM
- Kd [4]: 4200 nM
- Kd [5]: 180 nM
- KD(IIaR) of the parent polypeptide/KD(IIaR) of the altered polypeptide [6]: 0.3
- KD(IIb) of the parent polypeptide/KD(IIb) of the altered polypeptide [7]: 16.8
B1: IL6R-BP560/IL6R-L (antibody, human IgG1, kappa)
heavy: B2 heavy with D235E, D239G, A269G, Y298D
light: not shown
notes: anti-human IL-6 receptor IgG1 variant; copies: 2 + 2

- Kd [10]: 850 nM
- Kd [11]: 20 nM
- FcγRIIaR binding as compared to IL6R-B3/IL6R-L [12]: ≤ 1.5 times
- FcγRIIb-binding activity as compared to IL6R-B3/IL6R-L [13]: ≥ 100 times
B4: IL6R-BP557/IL6R-L (antibody, human IgG1, kappa)
heavy: B2 heavy with D235E, A269G, E270D, Y298D
light: not shown
notes: copies: 2 + 2

- KD(IIaR) of parent polypeptide/KD(IIaR) of altered polypeptide [14]: 2.2
- KD(IIb) of parent polypeptide/KD(IIb) of altered polypeptide [15]: 162
- Kd [16]: 500 nM
- Kd [17]: 12 nM
- Kd [18]: 19 nM
- KD(IIaR)/KD(IIb) [19]: 26.2
B5: IL6R-BP548/IL6R-L (antibody, human IgG1, kappa)
heavy: B2 heavy with A269S, E270D, Y298D, Q421E
light: not shown
notes: Q419E introduced into IL6R-BP230; copies: 2 + 2

- KD(IIaR)/KD(IIb) [1]: 29
- KD(IIaH)/KD(IIb) [2]: 466
- Kd [3]: 25 nM
- Kd [4]: 680 nM
- Kd [5]: 24 nM
- KD(IIaR) of the parent polypeptide/KD(IIaR) of the altered polypeptide [6]: 1.6
- KD(IIb) of the parent polypeptide/KD(IIb) of the altered polypeptide [7]: 131
B8: IL6R-BP562/IL6R-L (antibody, human IgG1, kappa)
heavy: B2 heavy with D235E, A269S, E270D, E274D, Y298D
light: not shown
notes: copies: 2 + 2

- KD(IIaR) of parent polypeptide/KD(IIaR) of altered polypeptide [14]: 1.9
- KD(IIb) of parent polypeptide/KD(IIb) of altered polypeptide [15]: 152
- Kd [16]: 560 nM
- Kd [17]: 23 nM
- Kd [18]: 20 nM
- KD(IIaR)/KD(IIb) [19]: 27.3
B9: IL6R-BP543/IL6R-L (antibody, human IgG1, kappa)
heavy: B2 heavy with A269S, E270Q, Y298D
light: not shown
notes: H268Q introduced into IL6R-BP230 (takes the place of H268D); copies: 2 + 2
